Laboratory results published in article PMC9274488.

How the values were obtained:
[1] = nuclear/cytoplasmic fractionation blot and immunofluorescence; details: glycan lost; control: control cells (sh-CTRL)
[2] = western blot, PANC1 and PaTU8988; details: glycan lost; control: sh-CTRL
western blot = details: glycan lost; control: untreated
[3] = cycloheximide chase, western blot; details: glycan lost; control: without BADGP

B1: ZEB1: OGT knockdown (protein)
parent chain: MKVTNYNTVVETNSDSDDEDKLHIVEEESVTDAADCEGVPEDDLPTDQTVLPGRSSEREGNAKNCWEDDTGKEGQEILGPEAQADEAGCTVKDDECESDAENEQNHDPNVEEFLQQQDTAVIFPEAPEEDQRQGTPEASGHDENGTPDAFSQLLTCPYCDRGYKRFTSLKEHIKYRHEKNEDNFSCSLCSYTFAYRTQLERHMTSHKSGRDQRHVTQSGCNRKFKCTECGKAFKYKHHLKEHLRIHSGEKPYECPNCKKRFSHSGSYSSHISSKKCISLIPVNGRPRTGLKTSQCSSPSLSASPGSPTRPQIRQKIENKPLQEQLSVNQIKTEPVDYEFKPIVVASGINCSTPLQNGVFTGGGPLQATSSPQGMVQAVVLPTVGLVSPISINLSDIQNVLKVAVDGNVIRQVLENNQANLASKEQETINASPIQQGGHSVISAISLPLVDQDGTTKIIINYSLEQPSQLQVVPQNLKKENPVATNSCKSEKLPEDLTVKSEKDKSFEGGVNDSTCLLCDDCPGDINALPELKHYDLKQPTQPPPLPAAEAEKPESSVSSATGDGNLSPSQPPLKNLLSLLKAYYALNAQPSAEELSKIADSVNLPLDVVKKWFEKMQAGQISVQSSEPSSPEPGKVNIPAKNNDQPQSANANEPQDSTVNLQSPLKMTNSPVLPVGSTTNGSRSSTPSPSPLNLSSSRNTQGYLYTAEGAQEEPQVEPLDLSLPKQQGELLERSTITSVYQNSVYSVQEEPLNLSCAKKEPQKDSCVTDSEPVVNVIPPSANPINIAIPTVTAQLPTIVAIADQNSVPCLRALAANKQTILIPQVAYTYSTTVSPAVQEPPLKVIQPNGNQDERQDTSSEGVSNVEDQNDSDSTPPKKKMRKTENGMYACDLCDKIFQKSSSLLRHKYEHTGKRPHECGICKKAFKHKHHLIEHMRLHSGEKPYQCDKCGKRFSHSGSYSQHMNHRYSYCKREAEERDSTEQEEAGPEILSNEHVGARASPSQGDSDERESLTREEDEDSEKEEEEEDKEMEELQEEKECEKPQGDEEEEEEEEEVEEEEVEEAENEGEEAKTEGLMKDDRAESQASSLGQKVGESSEQVSEEKTNEA
Q: With B1 as the protein, how does the localisation_or_trafficking [1] read?
A: decreases

B2: ZEB1: sh-OGT (protein)
parent chain: MKVTNYNTVVETNSDSDDEDKLHIVEEESVTDAADCEGVPEDDLPTDQTVLPGRSSEREGNAKNCWEDDTGKEGQEILGPEAQADEAGCTVKDDECESDAENEQNHDPNVEEFLQQQDTAVIFPEAPEEDQRQGTPEASGHDENGTPDAFSQLLTCPYCDRGYKRFTSLKEHIKYRHEKNEDNFSCSLCSYTFAYRTQLERHMTSHKSGRDQRHVTQSGCNRKFKCTECGKAFKYKHHLKEHLRIHSGEKPYECPNCKKRFSHSGSYSSHISSKKCISLIPVNGRPRTGLKTSQCSSPSLSASPGSPTRPQIRQKIENKPLQEQLSVNQIKTEPVDYEFKPIVVASGINCSTPLQNGVFTGGGPLQATSSPQGMVQAVVLPTVGLVSPISINLSDIQNVLKVAVDGNVIRQVLENNQANLASKEQETINASPIQQGGHSVISAISLPLVDQDGTTKIIINYSLEQPSQLQVVPQNLKKENPVATNSCKSEKLPEDLTVKSEKDKSFEGGVNDSTCLLCDDCPGDINALPELKHYDLKQPTQPPPLPAAEAEKPESSVSSATGDGNLSPSQPPLKNLLSLLKAYYALNAQPSAEELSKIADSVNLPLDVVKKWFEKMQAGQISVQSSEPSSPEPGKVNIPAKNNDQPQSANANEPQDSTVNLQSPLKMTNSPVLPVGSTTNGSRSSTPSPSPLNLSSSRNTQGYLYTAEGAQEEPQVEPLDLSLPKQQGELLERSTITSVYQNSVYSVQEEPLNLSCAKKEPQKDSCVTDSEPVVNVIPPSANPINIAIPTVTAQLPTIVAIADQNSVPCLRALAANKQTILIPQVAYTYSTTVSPAVQEPPLKVIQPNGNQDERQDTSSEGVSNVEDQNDSDSTPPKKKMRKTENGMYACDLCDKIFQKSSSLLRHKYEHTGKRPHECGICKKAFKHKHHLIEHMRLHSGEKPYQCDKCGKRFSHSGSYSQHMNHRYSYCKREAEERDSTEQEEAGPEILSNEHVGARASPSQGDSDERESLTREEDEDSEKEEEEEDKEMEELQEEKECEKPQGDEEEEEEEEEVEEEEVEEAENEGEEAKTEGLMKDDRAESQASSLGQKVGESSEQVSEEKTNEA
Q: For B2, which expression_or_secretion [2] is on record?
A: decreases

B3: ZEB1: BADGP (protein)
parent chain: MKVTNYNTVVETNSDSDDEDKLHIVEEESVTDAADCEGVPEDDLPTDQTVLPGRSSEREGNAKNCWEDDTGKEGQEILGPEAQADEAGCTVKDDECESDAENEQNHDPNVEEFLQQQDTAVIFPEAPEEDQRQGTPEASGHDENGTPDAFSQLLTCPYCDRGYKRFTSLKEHIKYRHEKNEDNFSCSLCSYTFAYRTQLERHMTSHKSGRDQRHVTQSGCNRKFKCTECGKAFKYKHHLKEHLRIHSGEKPYECPNCKKRFSHSGSYSSHISSKKCISLIPVNGRPRTGLKTSQCSSPSLSASPGSPTRPQIRQKIENKPLQEQLSVNQIKTEPVDYEFKPIVVASGINCSTPLQNGVFTGGGPLQATSSPQGMVQAVVLPTVGLVSPISINLSDIQNVLKVAVDGNVIRQVLENNQANLASKEQETINASPIQQGGHSVISAISLPLVDQDGTTKIIINYSLEQPSQLQVVPQNLKKENPVATNSCKSEKLPEDLTVKSEKDKSFEGGVNDSTCLLCDDCPGDINALPELKHYDLKQPTQPPPLPAAEAEKPESSVSSATGDGNLSPSQPPLKNLLSLLKAYYALNAQPSAEELSKIADSVNLPLDVVKKWFEKMQAGQISVQSSEPSSPEPGKVNIPAKNNDQPQSANANEPQDSTVNLQSPLKMTNSPVLPVGSTTNGSRSSTPSPSPLNLSSSRNTQGYLYTAEGAQEEPQVEPLDLSLPKQQGELLERSTITSVYQNSVYSVQEEPLNLSCAKKEPQKDSCVTDSEPVVNVIPPSANPINIAIPTVTAQLPTIVAIADQNSVPCLRALAANKQTILIPQVAYTYSTTVSPAVQEPPLKVIQPNGNQDERQDTSSEGVSNVEDQNDSDSTPPKKKMRKTENGMYACDLCDKIFQKSSSLLRHKYEHTGKRPHECGICKKAFKHKHHLIEHMRLHSGEKPYQCDKCGKRFSHSGSYSQHMNHRYSYCKREAEERDSTEQEEAGPEILSNEHVGARASPSQGDSDERESLTREEDEDSEKEEEEEDKEMEELQEEKECEKPQGDEEEEEEEEEVEEEEVEEAENEGEEAKTEGLMKDDRAESQASSLGQKVGESSEQVSEEKTNEA
Q: Which results are given for B3?
A: expression_or_secretion (western blot): decreases; degradation_or_half_life [3]: decreases
